In PMC12337344:

How the values were obtained:
[1] = biological target: MBP-tagged G2L4 RT R191E/I202E (Pseudomonas aeruginosa); assay: SEC; gel filtration profiles of MBP-tagged WT and RT3a mutant G2L4 RTs (SI Appendix, Fig. S4 A and B)
[2] = biological target: G2L4 RT with deletion of C-terminal residues 401 to 411 (Pseudomonas aeruginosa); assay: not stated; dimer state of G2L4 RT after removal of the MBP tag and after deletion of residues 401 to 411 (SI Appendix, Fig. S10 A and B)
[3] = biological target: G2L4 RT (Pseudomonas aeruginosa group II intron-like reverse transcriptase), full-length, as crystallised (Pseudomonas aeruginosa); assay: SEC; size-exclusion chromatography comparing G2L4 RT to GII RT (SI Appendix, Fig. S1A)
[4] = biological target: G2L4 RT NTE mutant (R12A, Y15A, R19A) (Pseudomonas aeruginosa); assay: native gel or EMSA; nondenaturing gel of WT and mutant G2L4 RT proteins; proportions running as monomer or dimer (SI Appendix, Fig. S10C)
[5] = biological target: MBP-tagged G2L4 RT R190E/R191E (Pseudomonas aeruginosa); assay: SEC; gel filtration profiles of MBP-tagged WT and RT3a mutant G2L4 RTs (SI Appendix, Fig. S4 A and B)
[6] = biological target: G2L4 RT with an A instead of an I at the active site (Pseudomonas aeruginosa); assay: native gel or EMSA; nondenaturing gel of WT and mutant G2L4 RT proteins; proportions running as monomer or dimer (SI Appendix, Fig. S10C)
[7] = biological target: G2L4 RT Thumb mutant (R397A, R398A, R404A) (Pseudomonas aeruginosa); assay: as above
[8] = biological target: G2L4 RT without the N-terminal MBP tag (Pseudomonas aeruginosa); assay: not stated; dimer state of G2L4 RT after removal of the MBP tag and after deletion of residues 401 to 411 (SI Appendix, Fig. S10 A and B)
[9] = biological target: MBP-tagged wild-type G2L4 RT (Pseudomonas aeruginosa); assay: SEC; gel filtration profiles of MBP-tagged WT and RT3a mutant G2L4 RTs (SI Appendix, Fig. S4 A and B)
[10] = biological target: MBP-tagged wild-type G2L4 RT (Pseudomonas aeruginosa); assay: native gel or EMSA; nondenaturing gel of WT and mutant G2L4 RT proteins; proportions running as monomer or dimer (SI Appendix, Fig. S10C)
[11] = biological target: MBP-tagged G2L4 RT R190E/I202E (Pseudomonas aeruginosa); assay: SEC; gel filtration profiles of MBP-tagged WT and RT3a mutant G2L4 RTs (SI Appendix, Fig. S4 A and B)
[12] = biological target: G2L4 RT NTE + Thumb mutant (R12A, Y15A, R398A) (Pseudomonas aeruginosa); assay: native gel or EMSA; nondenaturing gel of WT and mutant G2L4 RT proteins; proportions running as monomer or dimer (SI Appendix, Fig. S10C)

MBP-tagged G2L4 RT R191E/I202E (enzyme)
stoichiometry N [1]: 2

G2L4 RT with deletion of C-terminal residues 401 to 411 (domain or fragment)
stoichiometry N [2]: 2

G2L4 RT (Pseudomonas aeruginosa group II intron-like reverse transcriptase), full-length, as crystallised (enzyme)
stoichiometry N [3]: 2

G2L4 RT NTE mutant (R12A, Y15A, R19A) (enzyme)
percent of the protein running as monomers [4]: 12%

MBP-tagged G2L4 RT R190E/R191E (enzyme)
stoichiometry N [5]: 2

G2L4 RT with an A instead of an I at the active site (enzyme)
percent of the protein running as monomers [6]: < 7%

G2L4 RT Thumb mutant (R397A, R398A, R404A) (enzyme)
percent of the protein running as monomers [7]: 35%

G2L4 RT without the N-terminal MBP tag (enzyme)
stoichiometry N [8]: 2

MBP-tagged wild-type G2L4 RT (enzyme)
stoichiometry N [9]: 2 | percent of the protein running as monomers [10]: < 7%

MBP-tagged G2L4 RT R190E/I202E (enzyme)
stoichiometry N [11]: 2

G2L4 RT NTE + Thumb mutant (R12A, Y15A, R398A) (enzyme)
percent of the protein running as monomers [12]: 54%
